Molecular target: T1, VentX (Homo sapiens, UniProt O95231 SEQ:1-258)
T1 sequence: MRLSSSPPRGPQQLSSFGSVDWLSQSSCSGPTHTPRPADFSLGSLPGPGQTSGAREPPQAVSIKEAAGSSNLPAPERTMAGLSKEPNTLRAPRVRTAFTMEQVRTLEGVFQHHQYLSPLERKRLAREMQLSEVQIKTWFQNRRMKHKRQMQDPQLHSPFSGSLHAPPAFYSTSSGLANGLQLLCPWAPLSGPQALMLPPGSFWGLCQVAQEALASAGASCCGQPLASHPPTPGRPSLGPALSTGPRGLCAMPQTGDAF
Experiment: EMSA; fluorescence-based EMSA kit
Conditions: tags: pCS2-VentX, TNT reticulocyte lysate
Experimental: Lysate Systems, Promega). […] Gel shift assay was performed with a fluorescence-based Electrophoretic Mobility Shift Assay (EMSA) Kit from Invitrogen following the manufacturer's instruction. The following double-stranded oligonucleotides were used in the experiments: 5′-[…]-3′ (wild type M-CSFR probe, putative homeodomain binding sequence is in bold and underlined); 5′-[…]-3′ (mutant M-CSFR);

B1: M-CSFR promoter probe wild type (dsDNA)
DNA 1: CTGCGTCTCTAAAATAATAATAATAAATTTTTAAAAGATATGC
DNA 2: GCATATCTTTTAAAAATTTATTATTATTATTTTAGAGACGCAG
- binding result: binds
